Results on one molecule are retold here after US20110293511A1, “SPECIFIC BINDING PROTEINS AND USES THEREOF” (priority 2009, published 2011).

For one assay, the target named is T1, EGFR of A431 cells (Homo sapiens, UniProt P00533).
T1 construct: endogenous in cells; host or cells: A431 human squamous carcinoma cells
Put plainly: ELISA of 806 reactivity in A431 lysate with AG1478. In kind it is cell-based. Conditions: AG1478 0.5 μM and 5 μM, 10 min at 37° C. How it is done:
Cells were placed in serum free media overnight, then treated with AG1478 for 10 min at 37° C., washed twice in PBS, then lysed in 1% Triton and lysates prepared by centrifugation for 10 min at 12,000 g. […] Plates were then blocked with 10% serum albumin/PBS for 2 hours at 37° C. and washed twice. A 1:20 cell lysate was added in 10% serum albumin/PBS for 1 hour at 37° C., then washed four times. Anti-EGFR(SC-03; Santa Cruz Biotechnology Inc.) in 10% serum albumin/PBS was reacted 90 min at room temperature, the plate washed four times, and anti-rabbit-HRP (1:2000 if from Silenus) in 10% serum albumin/PBS was added for 90 min at room temperature, washed four times, and color developed using ABTS as a substrate.

A further assay deals with T2, denaturated sEGFR (Homo sapiens, UniProt P00533).
T2 construct: sEGFR is the recombinant extracellular domain (amino acids 1-621) of the wild-type EGFR); host or cells: CHO cells
As to the kind of experiment: BIAcore with immobilized sEGFR. Type of assay: binding. The method, then:
In a second set of BIAcore experiments, sEGFR was immobilized on a CM microsensor chip at a surface density of ˜4000RU. Serial dilutions of mAbs were tested for reactivity with sEGFR.

A further assay deals with T3, wtEGFR on A431 cells (Homo sapiens, UniProt P00533).
T3 construct: endogenous in cells; host or cells: A431 human squamous carcinoma cells
As to the kind of experiment: Scatchard analysis on A431 cells. In kind it is binding.

For another assay, the system named is A431 cells. As to the kind of experiment: binding to cell lines by FACS. Also noted: species or system human.
Another assay relates to U87MG.DK cells. As to the kind of experiment: binding to cell lines by FACS. Further details: species or system human. How it is done:
Populations expressing similar levels of the various EGFR alleles (these expression levels correspond approximately to an amplification level of 25 gene copies; human glioblastomas typically have amplification levels from 10 to 50 gene copies of the truncated receptor) were selected by FACS as described previously (Nishikawa et al., 1994) and designated as U87MG.ΔEGFR, U87MG.DK, U87MG.wtEGFR, LN-Z308.ΔEGFR, LN-Z308.DK, LN-Z308.wtEGFR, A1207.ΔEGFR, A1207.DK, and A1207.wtEGFR, respectively. Each was maintained in medium containing G418 (U87MG cell lines, 400 μg/ml; LN-Z308 and A1207 cell lines, 800 μg/ml).
Stained cells were analyzed with a FACS Calibur using Cell Quest software (Becton-Dickinson PharMingen). […] 1. Mouse IgG2a or IgG2b was used as an isotype control.

A further assay relates to HN5 and MDA-468 cells. As to the kind of experiment: binding to cell lines by FACS. Further details: species or system human. The settings on record: HN5 and MDA-468, both cell lines.
The next assay addresses T4, deglycosylated sEGFR (Homo sapiens, UniProt P00533).
T4 construct: sEGFR is the recombinant extracellular domain (amino acids 1-621) of the wild-type EGFR); host or cells: CHO cells
Put plainly: immunoblot of PNGase F treated sEGFR. In kind it is binding. How it is done:
To determine if carbohydrate structures are directly involved in the mAb806 epitope, the recombinant sEGFR expressed in CHO cells was treated with PNGase F to remove N-linked glycosylation.

The subject of the next assay is xenograft A431. As to the kind of experiment: immunohistochemical analysis on xenograft tumors. Type of assay: binding, human. The text has this:
The murine fibroblast line NR6ΔEGFR was used as immunogen. Mouse hybridomas were generated by immunizing BALB/c mice five times subcutaneously at 2- to 3-week intervals, with 5×10^5-2×10^6 cells in adjuvant. Complete Freund's adjuvant was used for the first injection. Thereafter, incomplete Freund's adjuvant (Difco™, Voigt Global Distribution, Lawrence, Kans.) was used. Spleen cells from immunized mice were fused with mouse myeloma cell line SP2/0 (Shulman et al. (1978) Nature 276:269-270). Supernatants of newly generated clones were screened in hemadsorption assays for reactivity with cell line NR6, NR6wtEGFR, and NR6ΔEGFR and then analyzed by hemadsorption assays with human glioblastoma cell lines U87MG, U87MGwtEGFR, and U87ΔEGFR. Selected hybridoma supernatants were subsequently tested by western blotting and further analyzed by immunohistochemistry. Newly generated mAbs showing the expected reactivity pattern were purified.
Bound antibody was detected using the Dako Envision+ HRP detection system as per manufacturer's instructions. Sections were finally rinsed with water, counterstained with hematoxylin and mounted.

For assay [1], the target named is T5, sEGFR (recombinant extracellular domain of the wild-type EGFR) (Homo sapiens, UniProt P00533).
T5 construct: sEGFR is the recombinant extracellular domain (amino acids 1-621) of the wild-type EGFR); host or cells: CHO cells
Put plainly: ELISA on sEGFR coated plates. In kind it is binding. How it is done:
Two types of ELISA were used to determine the specificity of the antibodies. […] Growth Factors. 18, 11-29). Antibodies were added to wells in triplicate at increasing concentration in 2% HSA in phosphate-buffered saline (PBS).

In assay [2] the test system is U87MG.wtEGFR brain xenografts. Put plainly: intracranial glioma xenograft treatment. Type of assay: in vivo, nude mice. Conditions: i.p. day 0 through 14.
The subject of another assay is DU145 xenografts. Put plainly: s.c. xenograft therapy study. In kind it is in vivo, nude mice. The settings on record: day 67; 1 mg i.p.; control 1145.
The subject of a further assay is U87MG xenografts. Put plainly: s.c. xenograft therapy study. In kind it is in vivo, nude mice. The settings on record: 1 mg per injection. How it is done: (§1) Tumor cells (3×10^6) in […] of PBS were inoculated subcutaneously into both flanks of 4-6 week old female nude mice (Animal Research Centre, Western Australia, Australia). […] Treatment was continued for a total of 6 doses, 3 times per week for 2 weeks. In the established model, treatment was started when tumors had reached a mean volume of 65±6.42 mm^3 (U87MG.Δ2-7), 84±9.07 mm3 (U87MG), 73±7.5 mm^3 (U87MG.wtEGFR) or 201±19.09 mm^3 (A431 tumors). Tumor volume in mm^3 was determined using the formula […], where length was the longest axis and width the measurement at right angles to the length (Clark et al. (2000) Therapeutic efficacy of anti-Lewis (y) humanized 3S 193 radioimmunotherapy in a breast cancer model: enhanced activity when combined with Taxol chemotherapy. Clin. Cancer Res. 6, 3621-3628). Data was expressed as mean tumor volume±S.E. for each treatment group. Statistical analysis was performed at given time points using Student's t-test. Animals were euthanized when the xenografts reached an approximate volume of 1.5 cm^3 and the tumors excised for histological examination. This research project was approved by the Animal Ethics Committee of the Austin and Repatriation Medical Centre.

The next assay concerns U87MG.wtEGFR xenografts. Put plainly: s.c. xenograft therapy study. In kind it is in vivo, nude mice. The settings on record: established model; day control animals were sacrificed; 1 mg injections. The method, then: as §1

“And” between values parts separate entries of the source, which are not always exact repeats. Equal entries are not always repeated.

B1: mAb806: murine IgG2b monoclonal antibody, clone 806, ATCC PTA-3858; VH SEQ ID NO:2, VL SEQ ID NO:4 (antibody, listed as Mus musculus, V domains shown)
VH: MRVLILLWLFTAFPGVLSDVQLQESGPSLVKPSQSLSLTCTVTGYSITSDFAWNWIRQFPGNKLEWMGYISYSGNTRYNPSLKSRISITRDTSKNQFFLQLNSVTIEDTATYYCVTAGRGFPYWGQGTLVTVSA
VL: MVSTAQFLAFLLLWFPGARCDILMTQSPSSMSVSLGDTVSITCHSSQDINSNIGWLQQRPGKSFKGLIYHGTNLDDEVPSRFSGSGSGADYSLTISSLESEDFADYYCVQYAQFPWTFGGGTKLEIKR
Consider B1, for which the “mAb806 binding in the presence of increasing amounts of AG1478” value with EGFR of A431 cells is “significantly increased”. The “reactivity with denaturated sEGFR” value with denaturated sEGFR is recorded as “strongly reactive”. Moreover, the “receptors (binding sites) per cell” value with wtEGFR on A431 cells (A431 cells) is on record as 2.3×10^5. Also, in the assay with wtEGFR on A431 cells (Scatchard, average of three experiments), the “affinity for the wtEGFR on A431 cells” value was 9.5e+07 M⁻¹. For the same molecule, the FACS staining entry is reported as “Low, but highly reproducible, binding” in the assay with A431 cells; “reacted intensely” with U87MG.DK cells; “clearly stained” with HN5 and MDA-468 cells. Besides, the “binding to deglycosylated sEGFR” value with deglycosylated sEGFR is “clearly bound”. Also, in the assay on xenograft A431, the Immunohistochemical staining result is on record as “pos. (predominantly basal”. Also, the “inhibition of binding to immobilized sEGFR by sEGFR in solution” value in assay [1] (ELISA) is “unable to inhibit”. Besides, in [1] (ELISA, up to 10 μg/ml), the “binding to immobilized wild-type sEGFR” value was “dose-dependent and saturating binding curves”. Moreover, the “inhibition of binding to immobilized sEGFR by denatured sEGFR in solution” value in assay [1] (sEGFR heated 10 min at 95° C.) is given as “able to inhibit”. In addition, in assay [2], the median survival came out at 23 days. Moreover, the mean tumor volume in the assay on DU145 xenografts is 605 mm^3; with U87MG.wtEGFR xenografts, 468±78.38 mm^3 and 500±80 mm^3. The “effect on xenograft growth” value in the assay with U87MG xenografts (established model) and in the assay on U87MG xenografts (preventative model) was “no effect” throughout.
